The source of these data is publication PMC7556843 (2020).

In the assay the target is Ub2 (Homo sapiens). Put plainly: ITC; values taken from Vincendeau et al. Background: Isothermal titration calorimetry measures the heat released or taken up as one component is titrated into another.

B1: Human NEMO258-350 C347S (NEMO UBAN domain) (domain or fragment)
chain: MQLEDLKQQLQQAEEALVAKQEVIDKLKEEAEQHKIVMETVPVLKAQADIYKADFQAERQAREKLAEKKELLQEQLEQLQREYSKLKASSQES
modifications: linear (M1-linked) diubiquitin, two 76-residue units fused head to tail; the N-terminal His-tag present in the SAXS sample is left out
As for B1, binding was characterised by a dissociation constant (Kd) of 1810 nM.
